One data set concerns TPST. As to the kind of experiment: Inhibition of [35S]sulfate transfer in the TPST assay by free peptide. In kind it is biochemical. The conditions noted are these: free peptide versus immobilized peptide. As to the method:
(§1) Assay of Sulfotransferase Activity. TPST activity was determined by measuring the transfer of [^35S]sulfate from [^35S]PAPS (Dupont/NEN) to an immobilized peptide. The peptide (QATEYEYLDYDFLPEC (SEQ ID NO:22)) represents the NH2-terminal 15 residues of the mature PSGL-1 polypeptide to which a carboxy terminal cysteine residue was added. […] The peptide was linked via the cysteine residue to iodoacetamide-activated resin (UltraLink™ Iodoacetyl, Pierce) at a density of 1.5-3.0 μmol/ml resin. The enzyme assay was performed by combining 10 μl of peptide-derivitized beads with 2-20 μl of sample in 40 mM PIPES, pH 6.8, 0.3 M NaCl, 20 mM MnCl2, 50 mM NaF, 1% Triton X-100, 1 mM 5′AMP in a final volume of […]. The assay was initiated by addition of 0.5 μCi of [^35S]PAPS (about 1.7 μM). After 30 min at 37° C., the reaction beads were washed extensively with 6 M guanidine at 65° C. and the radioactivity incorporated into the beads determined by liquid scintillation counting. The reaction rate was optimal at pH 6.8-7.0, 0.3 M NaCl, and 2 μM PAPS and was linear with respect to time and sample input. […] One unit of activity was defined as 1 pmol of product formed per minute.

The subject of data set [1] is PSGL-1 peptide (QATEYEYLDYDFLPEC). As to the kind of experiment: TPST activity assay: transfer of [35S]sulfate from [35S]PAPS to immobilized PSGL-1 peptide. In kind it is biochemical, Homo sapiens. The conditions noted are these: for specific activity of 293-T cell extracts: 293-T cells transfected with full-length HPC4 fusion cDNA; for specific activity of 293-T cell extracts / Specific Activity: mean ± SD; for increase in specific activity of 293-T cell extracts compared to mock transfected: PSGL-1 peptide substrate; for Induction-Fold: mean specific activity of TPST transfected vs. mock transfected extracts; for TPST activity in cell-free conditioned media / culture supernatants: conditioned media of transfected CHO-K1 and 293-T cells (full-length enzyme); for Specific Activity: 1 unit = 1 pmol product/min. Here is the method: as §1
Chinese hamster ovary cells (CHO-K1) were grown in high-glucose Alpha modified Eagle's media containing 10% FCS, 2 mM glutamine at 37° C. and 5% CO2. The human embryonic kidney cell line 293-T was grown in low-glucose Dulbecco's modified Eagle's media containing 10% FCS, 2 mM glutamine at 37° C. and 5% CO2. Cells were transfected with empty vector or vector containing cDNAs encoding human TPST-1-HPC4 fusion protein or mouse TPST-1 using Lipofectamine (Gibco/BRL) according to the instructions of the supplier. The media was changed at 24 h and after an additional 24 h the conditioned media was collected. The cell monolayers were washed with Ca^2+/Mg^2+-free Hank's balanced salt solution and the cells released from the plates. The cells were pelleted by centrifugation and extracted with 1% Triton X-100, 0.1 M NaCl, 20 mM TAPS (pH 9.0), 10 μg/ml leupeptin/antipain, 5 mM benzamidine. Extracts and conditioned media were clarified by centrifugation (15 min, 10,000 g) and stored at −80° C.
Expression and characterization of Recombinant TPST-2. Full-length human and mouse TPST-2 were expressed in 293-T cells as HPC4 fusion proteins as described in Experimental Procedures. Cells transfected with empty plasmid or plasmid encoding human and mouse TPST fusion proteins were extracted and assayed for TPST activity and protein content. Extracts were assayed as discussed above using a PSGL-1 peptide substrate (QATEYEYLDYDFLPEC (SEQ ID NO:22)). The specific activity of mock transfected 293-T cell extracts was 0.06±0.01 u/mg (mean±SD, n=6).

Setting [2] is: extracts of transfected 293-T cells.

From patent US6713283B2, “Tyrosylprotein sulfotransferases” (The Board of Regents of the University of Oklahoma, priority 1998, dated 2004) come the findings set out here.

In the case of QATEYEYLDYDFLPEC [free peptide], the “IC50 for inhibition of transfer of [35S]sulfate” value in the data set on TPST is “equimolar to the concentration of immobilized peptide in the assay”.

B1: human TPST-2: Full-length human tyrosylprotein sulfotransferase-2 (SEQ ID NO:5) expressed as HPC4 fusion protein (protein)
chain: MRLSVRRVLLAAGCALVLVLAVQLGQQVLECRAVLAGLRSPRGAMRPEQEELVMVGTNHVEYRYGKAMPLIFVGGVPRSGTTLMRAMLDAHPEVRCGEETRIIPRVLAMRQAWSKSGREKLRLDEAGVTDEVLDAAMQAFILEVIAKHGEPARVLCNKDPFTLKSSVYLSRLFPNSKFLLMVRDGRASVHSMITRKVTIAGFDLSSYRDCLTKWNKAIEVMYAQCMEVGKEKCLPVYYEQLVLHPRRSLKLILDFLGIAWSDAVLHHEDLIGKPGGVSLSKIERSTDQVIKPVNLEALSKWTGHIPGDVVRDMAQIAPMLAQLGYDPYANPPNYGNPDPFVINNTQRVLKGDYKTPANLKGYFQVNQNSTSSHLGSS
modifications: HPC4 epitope tag
As for B1, in data set [1], the “specific activity of 293-T cell extracts” value stood at 7.07±1.28 u/mg. In addition, in data set [1] (293-T cells), the “increase in specific activity of 293-T cell extracts compared to mock transfected” value (shortened to “increase in specific activity”) amounted to 112 fold.

B2: hTPST-1-HPC4: Human tyrosylprotein sulfotransferase-1 (SEQ ID NO:1) expressed as fusion protein with NH2-terminal HPC4 epitope (protein)
chain: MVGKLKQNLLLACLVISSVTVFYLGQHAMECHHRIEERSQPVKLESTRTTVRTGLDLKANKTFAYHKDMPLIFIGGVPRSGTTLMRAMLDAHPDIRCGEETRVIPRILALKQMWSRSSKEKIRLDEAGVTDEVLDSAMQAFLLEIIVKHGEPAPYLCNKDPFALKSLTYLSRLFPNAKFLLMVRDGRASVHSMISRKVTIAGFDLNSYRDCLTKWNRAIETMYNQCMEVGYKKCMLVHYEQLVLHPERWMRTLLKFLQIPWNHSVLHHEEMIGKAGGVSLSKVERSTDQVIKPVNVGALSKWVGKIPPDVLQDMAVIAPMLAKLGYDPYANPPNYGKPDPKIIENTRRVYKGEFQLPDFLKEKPQTEQVE
modifications: N-terminal HPC4 epitope tag
Take B2: the “specific activity of TPST-1 extracts relative to TPST-2 extracts” value in data set [1] (293-T cell extracts, PSGL-1 peptide as substrate) was “comparable”. Besides, the Induction-Fold in data set [1] (293-T cells) turned out to be 80 Fold; in data set [1] (CHO-K1 cells), 9 Fold. In addition, in data set [1], the “TPST activity in cell-free conditioned media / culture supernatants” value is “not detectable”. Also, the “Specific Activity” value in data set [1] (setting [2]) is given as 8.84 ± 1.53 (5) units/mg; in data set [1] (extracts of transfected CHO-K1 cells), 2.31 ± 0.89 (3) units/mg. Also, the “specific activity of purified fusion protein” value in data set [1] (purified from 293-T cell extracts by HPC4 affinity chromatography) is “about 6,300 u/mg”.

B3: C. elegans TPST-A: C. elegans tyrosylprotein sulfotransferase of 380 amino acids (SEQ ID NO:9), expressed full-length in 293-T cells (protein)
chain: MRKNRELLLVLFLVVFILFYFITARTADDPYYSNHREKFNGAAADDGDESLPFHQLTSVRSDDGYNRTSPFIFIGGVPRSGTTLMRAMLDAHPEVRCGEETRVIPRILNLRSQWKKSEKEWNRLQQAGVTGEVINNAISSFIMEIMVGHGDRAPRLCNKDPFTMKSAVYLKELFPNAKYLLMIRDGRATVNSIISRKVTITGFDLNDFRQCMTKWNAAIQIMVDQCESVGEKNCLKVYYEQLVLHPEAQMRRITEFLDIPWDDKVLHHEQLIGKDISLSNVERSSDQVVKPVNLDALIKWVGTIPEDVVADMDSVAPMLRRLGYDPNANPPNYGKPDELVAKKTEDVHKNGAEWYKKAVQVVNDPGRVDKPIVDNEVSKL
In the case of B3, the “increase in specific activity” value in data set [1] (293-T cells) was 40 fold.

B4: rat liver TPST: TPST purified from rat liver microsomes, polypeptide of about 50 kDa (protein)
chain: MVGKLKQNLLLACLVISSVTVFYLGQHAMECHHRIEERSQPARLENPKATVRTGLDIKANKTFTYHKNMPLIFIGGVPRSGTTLMRAMLDAHPDIRCGEETRVIPRILALKQMWSRSSKEKIRLDEAGVTDEVLDSAMQAFLLEVIVKHGEPAPYLCNKDPFALKSLTYLARLFPNAKFLLMVRDGRASVHSMISRKVTIAGFDLNSYRDCLTKWNRAIETMYNQCMEVGYKKCMLVHYEQLVLHPERWMRTLLKFLHIPWNHSVLHHEEMIGKAGGVSLSKVERSTDQVIKPVNVGALSKWVGKIPPDVLQDMAVIAPMLAKLGYDPYANPPNYGKPDPKILENTRRVHKGEFQLPDFLKEKPQTEQVE
For B4, the “specific activity of purified enzyme” value in data set [1] (rat liver microsomal enzyme after second PSGL-1 peptide column) is given as “about 2,950 units/mg”.

B5: mTPST-1: Mouse tyrosylprotein sulfotransferase-1 (SEQ ID NO:3), expressed from unmodified pcDNA3.1(+) vector (protein)
chain: MVGKLKQNLLLACLVISSVTVFYLGQHAMECHHRIEERSQPARLENPKATVRAGLDIKANKTFTYHKDMPLIFIGGVPRSGTTLMRAMLDAHPDIRCGEETRVIPRILALKQMWSRSSKEKIRLDEAGVTDEVLDSAMQAFLLEVIVKHGEPAPYLCNKDPFALKSLTYLARLFPNAKFLLMVRDGRASVHSMISRKVTIAGFDLNSYRDCLTKWNRAIETMYNQCMEVGYKKCMLVHYEQLVLHPERWMRTLLKFLHIPWNHSVLHHEEMIGKAGGVSLSKVERSTDQVIKPVNVGALSKWVGKIPPDVLQDMAVIAPMLAKLGYDPYANPPNYGKPDPKILENTRRVYKGEFQLPDFLKEKPQTEQVE
B5: the Induction-Fold in data set [1] (293-T cells) is recorded as 74 Fold. Moreover, in data set [1], the “TPST activity in cell-free conditioned media / culture supernatants” value is reported as “not detectable”. Also, the “Specific Activity” value in data set [1] (setting [2]) is recorded as 8.10 ± 1.37 (4) units/mg.

B6: mouse TPST-2: Full-length mouse tyrosylprotein sulfotransferase-2 (SEQ ID NO:7) expressed as HPC4 fusion protein (protein)
chain: MRLSVRKVLLAAGCALALVLAVQLGQQVLECRAVLGGTRNPRRMRPEQEELVMLGADHVEYRYGKAMPLIFVGGVPRSGTTLMRAMLDAHPEVRCGEETRIIPRVLAMRQAWTKSGREKLRLDEAGVTDEVLDAAMQAFILEVIAKHGEPARVLCNKDPFTLKSSVYLARLFPNSKFLLMVRDGRASVHSMITRKVTIAGFDLSSYRDCLTKWNKAIEVMYAQCMEVGRDKCLPVYYEQLVLHPRRSLKRILDFLGIAWSDTVLHHEDLIGKPGGVSLSKIERSTDQVIKPVNLEALSKWTGHIPRDVVRDMAQIAPMLARLGYDPYANPPNYGNPDPIVINNTHRVLKGDYKTPANLKGYFQVNQNSTSPHLGSS
modifications: HPC4 fusion tag
Turning to B6, the “specific activity of 293-T cell extracts” value in data set [1] was 2.91±0.86 u/mg. Besides, the “increase in specific activity” value in data set [1] (293-T cells) worked out at 46 fold.
